Results: patent USRE44389

Columns and labels:
[1] = biological target: Fcγ receptors on granulocytes (human blood); test: FACS on human granulocytes, antibody 10 µg/ml
[2] = biological target: Fcγ receptors on monocytes (human blood); test: FACS on human monocytes, antibody 10 µg/ml
[3] = biological target: Fcγ receptors on monocytes (human blood); test: FACS on human monocytes, antibody 10 µg/ml; negative control

Row | Substance | % granulocytes binding antibody [1] [%] | % monocytes binding antibody [2] [%] | % monocytes binding antibody [3] [%]
1 | HuMab 002 Fc variant IgG4v1 (S228P; L235E) (antibody) | 1.6 | 14.5 | 
2 | Human IgG4 (CLB, the Netherlands), negative control (antibody) |  |  | 9.4
